Laboratory results published in patent US20210101984A1 (JIANGSU HENGRUI MEDICINE, published 2021).

T1: murine B7-H3 antigen (R&D cat# 1397-B3-050/CF) (murine, UniProt Q8VE98 29-244)
T1 construct: Commercial protein; also called mouse B7-H3
T1 sequence: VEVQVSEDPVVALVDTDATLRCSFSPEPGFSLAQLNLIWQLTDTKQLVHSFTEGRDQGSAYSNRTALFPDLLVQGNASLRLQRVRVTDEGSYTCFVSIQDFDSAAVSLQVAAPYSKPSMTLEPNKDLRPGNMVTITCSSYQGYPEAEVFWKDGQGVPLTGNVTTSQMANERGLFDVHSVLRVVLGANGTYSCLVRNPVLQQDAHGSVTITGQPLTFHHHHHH


How the values were obtained:
[1] = molecular target: T1, murine B7-H3 antigen (R&D cat# …); assay: SPR (Biacore T200), antibody captured on Protein A chip, antigen in flow, 1:1 Langmuir fit
Text: A biosensor chip Protein A (Cat. # 29127556, GE) was used to affinity capture a certain amount of antibody to be tested. A series diluted of human 2Ig-B7-H3 antigen (Cat. #1949-B3-050/CF, R&D), human 4Ig-B7-H3 antigen (Cat. #11188-H08H, Sino Biological) or murine B7-H3 antigen (Cat. # 1397-B3-050/CF, R&D) was flowed through the surface of the chip. Real-time reaction signal was detected by using Biacore instrument (Biacore T200, GE), in order to obtain association and dissociation curves. After completion of each cycle of dissociation, the biochip was washed and regenerated with glycine-hydrochloric acid regeneration solution (pH 1.5) (Cat.#BR-1003-54, GE). The buffer used in the experiment was HBS-EP buffer solution (pH 7.4) (Cat. # BR-1001-88, GE).
The experimental data was fitted with BIA evaluation version 4.1 GE software in a (1:1) Langmuir model to obtain affinity values.

[2] = molecular target: B7-H3 on U87MG tumor cells (human) (UniProt Q5ZPR3); assay: flow cytometry on U87MG cells, APC anti-human IgG Fc detection, geometric mean fluorescence
Chain of B7-H3 on U87MG tumor cells (human) (Q5ZPR3 29-534): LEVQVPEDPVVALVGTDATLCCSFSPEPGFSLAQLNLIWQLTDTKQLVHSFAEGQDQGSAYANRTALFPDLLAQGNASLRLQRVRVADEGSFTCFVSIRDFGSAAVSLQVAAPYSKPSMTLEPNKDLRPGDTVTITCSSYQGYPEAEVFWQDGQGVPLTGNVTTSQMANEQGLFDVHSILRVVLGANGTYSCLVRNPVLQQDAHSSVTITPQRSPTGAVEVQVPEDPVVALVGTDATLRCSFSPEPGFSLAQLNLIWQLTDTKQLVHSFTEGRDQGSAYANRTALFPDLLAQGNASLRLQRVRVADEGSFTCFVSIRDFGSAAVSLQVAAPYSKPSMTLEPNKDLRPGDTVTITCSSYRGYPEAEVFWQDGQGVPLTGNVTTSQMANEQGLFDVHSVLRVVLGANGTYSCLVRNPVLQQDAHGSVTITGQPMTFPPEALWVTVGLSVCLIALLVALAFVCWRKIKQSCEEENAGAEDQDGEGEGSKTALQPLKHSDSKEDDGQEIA

Binder | Kd [1] [nM] | EC50 (read off the curve) [2] [nM]
h1703-IgG1 (antibody, V domains shown, Fully human IgG1 with kappa light chain, from an scFv phage library, expressed in HEK293E cells) VH: QVQLQESGGGLVQPGGSLRLSCAASGFTFSSYAMSWVRQAPGKGLEWVSAISGSGGSTYYADSVKGRYTISRDNSKNTLYLQMNSLRAEDTAVYYCAKGVGPVHALDVWGQGTTVTVSS VL: DIRLTQSPSSLSASVGDRVTITCRASQSISTYLNWYQQKPGKAPILLINAVSGLQSGVPSRFSGSGSGTHFTLTITSLQPEDFATYYCQQSYSTPMWTFGQGTKVEIKR | 502 | 
h1702-IgG1 (antibody, V domains shown, Fully human IgG1 with lambda light chain, from an scFv phage library, expressed in HEK293E cells) VH: QVQLVQSGGGVVQPGTSLRLSCAASGFIFSSSAMHWVRQAPGKGLEWVAVISYDGSNKYYVDSVKGRFTISRDNSKNTLYLQMNSLRAEDTAVYYCARSARLYASFDYWGQGALVTVSS VL: QTVVTQEPSFSVSPGGTVTLTCGLSSGSVSTSHYPSWYQQTPGQAPRMLIYNTNTRSSGVPDRFSGSILGNKAALTITGAQADDESDYYCAIHVDRDIWVFGGGTKLTVLG | 1470 | 2
